Patent US20140296492A1

Target: HLA-A2-… complex on cells (human)
Experiment: cell-based or functional assay

## anti-HLA-A2 antibody BB7.2
  blocking of WT1 Clone 45 CAR-mediated cytotoxicity against …-pulsed DIMT BLCL (51Cr release), antibody at 5 µg/ml: 45%
